Results as given in the supplement of paper PMC11780869.

The sequences below were run on Bacillus subtilis (assay: cleaved RNA product abundance (RNA/gDNA barcode ratio) relative to median wild-type variant (ratio to wild type); higher = more accumulation of the downstream cleavage product). Conditions: experiment (reporter, strain, medium): exp 2b: truncated aprE reporter, strain BJT200; cleavage site: cggR-gapA (positions -7 to +36 mutated).
Method in brief: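 Cleaved product abundance for each construct is its RNA-to-gDNA barcode ratio, scaled to the median construct carrying the unmutated site. Cleaved RNA was isolated on a gel, reverse transcribed and barcode-sequenced, with genomic DNA barcodes sequenced alongside and UMIs collapsed. The reporters were truncated aprE or tetM mRNAs with barcoded, mutagenized RNase Y cleavage-site windows integrated into the B. subtilis chromosome, and cultures grew in LB at 37°C from OD600 0.0003 to 0.3.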

Point of comparison: “ACAGACGAAGGAGCCGCTAACAAGTTATTAAAGGATGAATAATCCCTCAATATAAATATCTCTCACTTATTTAAA”, “cleaved RNA product abundance” value 0.111. Against it:
- ACAGACGAAGGAGCCGCGAAGAAGTTATTTAGGGATGAATAATCCCTCAATATAAATATCTCTCACTTATTTAAA — higher, 0.572
- ACAGACGAAGGAGCCGCGAATAAGTTATTAAGGGATGAATAATCCCTCAATATAAATATCTCTCACTTATTTAAA — higher, 1.19
- ACAGACGAAGGAGCCGCTAAGAAATTATTAAGGGATGAATAATCCCTCAATATAAATATCTCTCACTTATTTAAA — higher, 0.556
- ACAGACGAAGGAGCCGCTAAGAAGATATTAAGGGATGAATAATCCCTCAATATAAATATCTCTCACTTATTTAAA — higher, 0.625
- ACAGACGAAGGAGCCGCTAAGAAGTTACTAAGGGATGAATAATCCCTCAATATAAATATCTCTCACTTATTTAAA — higher, 0.186
- ACAGACGAAGGAGCCGCTAAGAAGTTATTAAGAGATGAATAATCCCTCAATATAAATATCTCTCACTTATTTAAA — higher, 0.126
- ACAGACGAAGGAGCCGCTAAGAAGTTATTAAGGCATGAATAATCCCTCAATATAAATATCTCTCACTTATTTAAA — higher, 0.115
- ACAGACGAAGGAGCCGCTAAGAAGTTATTAAGGGATGAATAAACCCTCAATATAAATATCTCTCACTTATTTAAA — higher, 0.537
- ACAGACGAAGGAGCCGCTAAGAAGTTATTAAGGGATGAATAATCCCTAAATATAAATATCTCTCACTTATTTAAA — higher, 0.745
- ACAGACGAAGGAGCCGCTAAGAAGTTATTAAGGGATGAATAATCCCTCAAGATAAATATCTCTCACTTATTTAAA — higher, 0.249
- ACAGACGAAGGAGCCGCTAAGAAGTTATTAAGGGATGAATAATCCCTCAATATAAATATCTCTCACTTATTTAAA — higher, 1.04
- ACAGACGAAGGAGCCGCTAAGAAGTTATTAAGGGATGAATAATCCTTCAATATAAATATCTCTCACTTATTTAAA — higher, 0.434
- ACAGACGAAGGAGCCGCTAAGAAGTTATTAAGGGATGAATAATTCCTCAATATAAATATCTCTCACTTATTTAAA — higher, 0.713
- ACAGACGAAGGAGCCGCTAAGAAGTTATTAAGGGATGCATAATCCCTCAATATAAATATCTCTCACTTATTTAAA — higher, 0.968
- ACAGACGAAGGAGCCGCTAAGAAGTTATTAAGGTATGAATAATCCCTCAATATAAATATCTCTCACTTATTTAAA — higher, 0.114

Same assay, conditions: experiment (reporter, strain, medium): exp 4a: truncated aprE reporter, strain BJT201 with 2% xylose (RNase J1 expressed); cleavage site: cggR-gapA (positions -7 to +36 mutated)

Point of comparison: “ACAGACGAAGGAGCCGCTAAAAAGTTATTAAGGGATGAATAATCCCTCAATATAAATATCTCTCACTTATTTAAA”, “cleaved RNA product abundance” value 1.1. Against it:
- ACAGACGAAGGAGCCGCGAAGAAGTTTTTAAGGGATGAATAATCCCTCAATATAAATATCTCTCACTTATTTAAA — lower, 0.418
- ACAGACGAAGGAGCCGCGAAGAATTTATTAAGGGATGAATAATCCCTCAATATAAATATCTCTCACTTATTTAAA — lower, 0.561
- ACAGACGAAGGAGCCGCGAAGTAGTTATTAAGGGATGAATAATCCCTCAATATAAATATCTCTCACTTATTTAAA — higher, 1.29
- ACAGACGAAGGAGCCGCGAATAAGTTATTAAGGGATGAATAATCCCTCAATATAAATATCTCTCACTTATTTAAA — higher, 1.47
- ACAGACGAAGGAGCCGCTAAGAAGCTATTAAGGGATGAATAATCCCTCAATATAAATATCTCTCACTTATTTAAA — lower, 0.52
- ACAGACGAAGGAGCCGCTAAGAAGTAATTAAGGGATGAATAATCCCTCAATATAAATATCTCTCACTTATTTAAA — lower, 0.309
- ACAGACGAAGGAGCCGCTAAGAAGTGATTAAGGGATGAATAATCCCTCAATATAAATATCTCTCACTTATTTAAA — lower, 0.419
- ACAGACGAAGGAGCCGCTAAGAAGTTATTAAAGGATGAATAATCCCTCAATATAAATATCTCTCACTTATTTAAA — lower, 0.157
- ACAGACGAAGGAGCCGCTAAGAAGTTATTAAGAGATGAATAATCCCTCAATATAAATATCTCTCACTTATTTAAA — lower, 0.135
- ACAGACGAAGGAGCCGCTAAGAAGTTATTAAGGAATGAATAATCCCTCAATATAAATATCTCTCACTTATTTAAA — lower, 0.0845
- ACAGACGAAGGAGCCGCTAAGAAGTTATTAAGGGAAGAATAATCCCTCAATATAAATATCTCTCACTTATTTAAA — lower, 0.638
- ACAGACGAAGGAGCCGCTAAGAAGTTATTAAGGGACGAATAATCCCTCAATATAAATATCTCTCACTTATTTAAA — lower, 0.573
- ACAGACGAAGGAGCCGCTAAGAAGTTATTAAGGGAGGAATAATCCCTCAATATAAATATCTCTCACTTATTTAAA — lower, 0.993
- ACAGACGAAGGAGCCGCTAAGAAGTTATTAAGGGATAAATAATCCCTCAATATAAATATCTCTCACTTATTTAAA — higher, 1.15
- ACAGACGAAGGAGCCGCTAAGAAGTTATTAAGGGATGAATAAACCCTCAATATAAATATCTCTCACTTATTTAAA — lower, 0.689
- ACAGACGAAGGAGCCGCTAAGAAGTTATTAAGGGATGAATAACCCCTCAATATAAATATCTCTCACTTATTTAAA — lower, 0.437
- ACAGACGAAGGAGCCGCTAAGAAGTTATTAAGGGATGAATAATACCTCAATATAAATATCTCTCACTTATTTAAA — lower, 0.15
- ACAGACGAAGGAGCCGCTAAGAAGTTATTAAGGGATGAATAATCACTCAATATAAATATCTCTCACTTATTTAAA — lower, 0.129
- ACAGACGAAGGAGCCGCTAAGAAGTTATTAAGGGATGAATAATCCATCAATATAAATATCTCTCACTTATTTAAA — lower, 0.186
- ACAGACGAAGGAGCCGCTAAGAAGTTATTAAGGGATGAATAATCCCACAATATAAATATCTCTCACTTATTTAAA — lower, 0.252
- ACAGACGAAGGAGCCGCTAAGAAGTTATTAAGGGATGAATAATCCCCCAATATAAATATCTCTCACTTATTTAAA — lower, 0.342
- ACAGACGAAGGAGCCGCTAAGAAGTTATTAAGGGATGAATAATCCCTAAATATAAATATCTCTCACTTATTTAAA — lower, 0.831
- ACAGACGAAGGAGCCGCTAAGAAGTTATTAAGGGATGAATAATCCCTCAACATAAATATCTCTCACTTATTTAAA — lower, 0.291
- ACAGACGAAGGAGCCGCTAAGAAGTTATTAAGGGATGAATAATCCCTCAAGATAAATATCTCTCACTTATTTAAA — lower, 0.322
- ACAGACGAAGGAGCCGCTAAGAAGTTATTAAGGGATGAATAATCCCTCAATATAAATATCTCTCACTTATTTAAA — lower, 0.985
- ACAGACGAAGGAGCCGCTAAGAAGTTATTAAGGGATGAATAATCCCTCAATGTAAATATCTCTCACTTATTTAAA — lower, 0.0932
- ACAGACGAAGGAGCCGCTAAGAAGTTATTAAGGGATGAATAATCCCTCTATATAAATATCTCTCACTTATTTAAA — lower, 0.509
- ACAGACGAAGGAGCCGCTAAGAAGTTATTAAGGGATGAATAATCCTTCAATATAAATATCTCTCACTTATTTAAA — lower, 0.597
- ACAGACGAAGGAGCCGCTAAGAAGTTATTAAGGGATGAATAATCTCTCAATATAAATATCTCTCACTTATTTAAA — higher, 1.12
- ACAGACGAAGGAGCCGCTAAGAAGTTATTAAGGGATGAATAATGCCTCAATATAAATATCTCTCACTTATTTAAA — lower, 0.154
- ACAGACGAAGGAGCCGCTAAGAAGTTATTAAGGGATGAATATTCCCTCAATATAAATATCTCTCACTTATTTAAA — lower, 0.667
- ACAGACGAAGGAGCCGCTAAGAAGTTATTAAGGGATGAATTATCCCTCAATATAAATATCTCTCACTTATTTAAA — lower, 0.874
- ACAGACGAAGGAGCCGCTAAGAAGTTATTAAGGGATGACTAATCCCTCAATATAAATATCTCTCACTTATTTAAA — lower, 0.542
- ACAGACGAAGGAGCCGCTAAGAAGTTATTAAGGGATGCATAATCCCTCAATATAAATATCTCTCACTTATTTAAA — lower, 0.814
- ACAGACGAAGGAGCCGCTAAGAAGTTATTAAGGGATTAATAATCCCTCAATATAAATATCTCTCACTTATTTAAA — lower, 1.02
- ACAGACGAAGGAGCCGCTAAGAAGTTATTAAGGGTTGAATAATCCCTCAATATAAATATCTCTCACTTATTTAAA — lower, 0.377
- ACAGACGAAGGAGCCGCTAAGAAGTTATTAAGGTATAAATAATCCCTCAATATAAATATCTCTCACTTATTTAAA — lower, 0.0621
- ACAGACGAAGGAGCCGCTAAGAAGTTATTAAGGTATGAATAATCCCTCAATATAAATATCTCTCACTTATTTAAA — lower, 0.296
- ACAGACGAAGGAGCCGCTAAGAAGTTATTAAGTGATGAATAATCCCTCAATATAAATATCTCTCACTTATTTAAA — lower, 0.167
- ACAGACGAAGGAGCCGCTAAGAAGTTATTAATGGATGAATAATCCCTCAATATAAATATCTCTCACTTATTTAAA — lower, 0.172
- ACAGACGAAGGAGCCGCTAAGAAGTTCTTAAGGGATGAATAATCCCTCAATACAAATATCTCTCACTTATTTAAA — lower, 0.0591
- ACAGACGAAGGAGCCGCTAAGAAGTTGTTAAGGGATGAATAATCCCTCAATATAAATATCTCTCACTTATTTAAA — lower, 0.503
- ACAGACGAAGGAGCCGCTAAGAATTTATTAAGGGATGAATAATCCCTCAATATAAATATCTCTCACTTATTTAAA — lower, 0.468
- ACAGACGAAGGAGCCGCTAAGATGTTATTAAGGGATGAATAATCCCTCAATATAAATATCTCTCACTTATTTAAA — higher, 1.18
- ACAGACGAAGGAGCCGCTAAGTAGTTATTAAGGGATGAATAATCCCTCAATATAAATATCTCTCACTTATTTAAA — higher, 1.27
- ACAGACGAAGGAGCCGCTACGAAGTTATTAAGGGATGAATAATCTCTCAATATAAATATCTCTCACTTATTTAAA — lower, 0.816
- ACAGACGAAGGAGCCGCTATGAAGTTATTAAGGGATGAATAATCCCTCAATATAAATATCTCTCACTTATTTAAA — lower, 0.952

Same assay, conditions: experiment (reporter, strain, medium): exp 6: tetM reporter, strain 168; cleavage site: cggR-gapA (positions -7 to +36 mutated)

Point of comparison: “ACAGACGAAGGAGCCGCTAAGAAGTTATTAAGGGATGAATAATCCCTCAATATAAATATCTCTCACTTATTTAAA”, “cleaved RNA product abundance” value 1.03. Against it:
- ACAGACGAAGGAGCCGGAAAGAAGTTATTAAGGGATGAATAATCCCTCAATATAAATATCTCTCACTTATTTAAA — lower, 0.897
- ACAGACGAAGGAGCCGTAAAGAAGTTATTAAGGCATGAATAATCCCTCAATATAAATATCTCTCACTTATTTAAA — lower, 0.143
